Consider four sequences from US20190134153A1, “IMMUNOMODULATORY EFFECT OF INHALED KINASE INHIBITOR PEPTIDES IN LUNG” (MOERAE MATRIX, INC., priority 2017, published 2019).

Targets include NEK7(h) (Homo sapiens, UniProt Q8TDX7); Ret(V804M)(h) (Homo sapiens, UniProt P07949, V804M); MEK1(h) (Homo sapiens, UniProt Q02750); PKCγ(h) (Homo sapiens, UniProt P05129); CK1δ(h) (Homo sapiens, UniProt P48730); Rsk4(h) (Homo sapiens, UniProt Q9UK32); CaMKIIδ(h) (Homo sapiens, UniProt Q13557); Met(Y1248D)(h) (Homo sapiens, UniProt P08581, Y1230D).
Common to all, as to test: Kinase Profiling Assay
Assay type in all cases: biochemical
What all share (conditions): 100 μM

The next assay addresses T1, SGK3(h) (Homo sapiens, UniProt Q96BR1).
T1 sequence (Q96BR1 1-496): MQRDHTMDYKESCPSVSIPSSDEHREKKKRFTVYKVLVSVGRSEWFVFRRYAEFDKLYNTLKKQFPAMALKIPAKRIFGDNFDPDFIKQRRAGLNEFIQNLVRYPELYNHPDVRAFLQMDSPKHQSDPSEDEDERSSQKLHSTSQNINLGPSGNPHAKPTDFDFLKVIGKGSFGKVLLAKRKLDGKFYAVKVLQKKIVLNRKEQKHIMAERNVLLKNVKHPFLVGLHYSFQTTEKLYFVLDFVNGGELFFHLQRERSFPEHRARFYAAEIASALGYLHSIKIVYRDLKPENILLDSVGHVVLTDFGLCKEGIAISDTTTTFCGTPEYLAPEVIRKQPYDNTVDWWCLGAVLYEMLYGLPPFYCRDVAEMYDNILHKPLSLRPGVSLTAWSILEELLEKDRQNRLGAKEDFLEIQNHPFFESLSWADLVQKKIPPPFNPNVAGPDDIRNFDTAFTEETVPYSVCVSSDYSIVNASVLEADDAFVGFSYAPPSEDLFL

A further assay concerns the target T2, PKG1α(h) (Homo sapiens, UniProt Q13976).
T2 sequence (Q13976 1-671): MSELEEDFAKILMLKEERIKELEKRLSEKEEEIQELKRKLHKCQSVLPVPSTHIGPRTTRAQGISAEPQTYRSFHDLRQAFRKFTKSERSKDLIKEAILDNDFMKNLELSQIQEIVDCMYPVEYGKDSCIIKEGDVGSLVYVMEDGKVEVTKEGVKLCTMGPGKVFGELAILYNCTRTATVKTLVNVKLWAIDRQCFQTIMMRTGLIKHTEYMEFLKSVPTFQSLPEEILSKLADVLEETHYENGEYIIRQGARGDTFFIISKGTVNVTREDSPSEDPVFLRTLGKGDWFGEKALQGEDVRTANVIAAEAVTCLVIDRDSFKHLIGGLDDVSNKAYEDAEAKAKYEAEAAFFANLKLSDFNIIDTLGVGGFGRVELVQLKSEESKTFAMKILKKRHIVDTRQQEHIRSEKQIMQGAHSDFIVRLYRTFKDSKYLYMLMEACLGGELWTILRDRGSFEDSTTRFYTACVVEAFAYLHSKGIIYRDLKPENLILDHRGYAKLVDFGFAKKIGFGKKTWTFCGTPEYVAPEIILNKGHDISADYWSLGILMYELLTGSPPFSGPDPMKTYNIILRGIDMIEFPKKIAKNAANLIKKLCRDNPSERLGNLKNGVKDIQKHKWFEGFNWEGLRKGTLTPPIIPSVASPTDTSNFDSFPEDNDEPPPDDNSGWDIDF

The next assay deals with T3, GCK(h) (Homo sapiens, UniProt Q12851).
T3 sequence (Q12851 1-820): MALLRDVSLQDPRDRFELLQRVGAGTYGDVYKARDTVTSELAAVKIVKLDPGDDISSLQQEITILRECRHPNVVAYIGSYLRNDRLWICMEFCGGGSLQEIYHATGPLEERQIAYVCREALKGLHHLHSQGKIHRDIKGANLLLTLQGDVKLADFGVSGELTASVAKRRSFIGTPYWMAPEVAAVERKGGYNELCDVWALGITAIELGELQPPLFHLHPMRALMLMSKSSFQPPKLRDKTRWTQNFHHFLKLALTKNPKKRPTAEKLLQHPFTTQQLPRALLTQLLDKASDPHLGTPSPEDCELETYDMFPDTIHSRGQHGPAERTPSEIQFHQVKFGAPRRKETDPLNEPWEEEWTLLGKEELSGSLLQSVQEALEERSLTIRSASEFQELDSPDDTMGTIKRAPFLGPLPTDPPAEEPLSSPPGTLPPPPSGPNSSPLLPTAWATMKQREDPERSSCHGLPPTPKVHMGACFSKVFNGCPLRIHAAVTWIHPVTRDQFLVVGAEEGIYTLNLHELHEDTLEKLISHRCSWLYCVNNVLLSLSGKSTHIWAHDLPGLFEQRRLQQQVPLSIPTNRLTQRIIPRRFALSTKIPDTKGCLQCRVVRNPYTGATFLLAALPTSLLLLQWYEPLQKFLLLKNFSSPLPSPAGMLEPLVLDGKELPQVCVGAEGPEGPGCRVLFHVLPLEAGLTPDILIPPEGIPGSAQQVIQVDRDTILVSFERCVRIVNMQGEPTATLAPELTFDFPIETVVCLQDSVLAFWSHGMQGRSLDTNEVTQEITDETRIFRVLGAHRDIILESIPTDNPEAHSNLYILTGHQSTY

Sequence of CK1δ(h) (P48730 whole entry): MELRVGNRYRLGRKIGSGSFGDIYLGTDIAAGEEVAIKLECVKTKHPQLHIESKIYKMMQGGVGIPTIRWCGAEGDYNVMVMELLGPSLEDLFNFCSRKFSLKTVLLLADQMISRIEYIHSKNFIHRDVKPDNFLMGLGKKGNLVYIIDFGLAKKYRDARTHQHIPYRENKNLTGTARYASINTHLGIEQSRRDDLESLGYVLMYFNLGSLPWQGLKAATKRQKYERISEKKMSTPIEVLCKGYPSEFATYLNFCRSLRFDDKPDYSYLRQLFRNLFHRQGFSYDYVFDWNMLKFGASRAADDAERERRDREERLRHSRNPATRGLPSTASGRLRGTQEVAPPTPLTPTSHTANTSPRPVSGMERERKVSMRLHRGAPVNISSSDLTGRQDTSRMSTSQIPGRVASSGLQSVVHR
Sequence of NEK7(h) (Q8TDX7 whole entry): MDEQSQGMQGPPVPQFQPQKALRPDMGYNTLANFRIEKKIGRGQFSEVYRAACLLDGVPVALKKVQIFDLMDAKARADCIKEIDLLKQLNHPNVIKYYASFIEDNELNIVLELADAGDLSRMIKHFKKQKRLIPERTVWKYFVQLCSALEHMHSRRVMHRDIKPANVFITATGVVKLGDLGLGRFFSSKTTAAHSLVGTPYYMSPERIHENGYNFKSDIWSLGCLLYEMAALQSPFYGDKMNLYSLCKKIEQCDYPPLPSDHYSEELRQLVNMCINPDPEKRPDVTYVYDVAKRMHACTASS
Sequence of CaMKIIδ(h) (Q13557 whole entry): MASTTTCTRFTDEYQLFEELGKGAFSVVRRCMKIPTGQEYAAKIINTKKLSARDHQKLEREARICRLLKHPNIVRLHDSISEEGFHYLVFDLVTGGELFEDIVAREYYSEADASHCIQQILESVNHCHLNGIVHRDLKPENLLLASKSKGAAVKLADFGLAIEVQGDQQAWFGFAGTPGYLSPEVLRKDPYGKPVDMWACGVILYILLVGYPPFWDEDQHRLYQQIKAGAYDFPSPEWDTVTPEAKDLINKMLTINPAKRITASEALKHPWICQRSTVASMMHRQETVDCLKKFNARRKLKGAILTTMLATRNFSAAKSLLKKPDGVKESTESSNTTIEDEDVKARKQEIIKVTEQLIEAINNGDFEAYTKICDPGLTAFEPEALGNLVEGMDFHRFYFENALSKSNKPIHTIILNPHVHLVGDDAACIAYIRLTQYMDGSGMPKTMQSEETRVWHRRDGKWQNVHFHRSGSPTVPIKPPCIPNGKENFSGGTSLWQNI
Sequence of Rsk4(h) (Q9UK32 whole entry): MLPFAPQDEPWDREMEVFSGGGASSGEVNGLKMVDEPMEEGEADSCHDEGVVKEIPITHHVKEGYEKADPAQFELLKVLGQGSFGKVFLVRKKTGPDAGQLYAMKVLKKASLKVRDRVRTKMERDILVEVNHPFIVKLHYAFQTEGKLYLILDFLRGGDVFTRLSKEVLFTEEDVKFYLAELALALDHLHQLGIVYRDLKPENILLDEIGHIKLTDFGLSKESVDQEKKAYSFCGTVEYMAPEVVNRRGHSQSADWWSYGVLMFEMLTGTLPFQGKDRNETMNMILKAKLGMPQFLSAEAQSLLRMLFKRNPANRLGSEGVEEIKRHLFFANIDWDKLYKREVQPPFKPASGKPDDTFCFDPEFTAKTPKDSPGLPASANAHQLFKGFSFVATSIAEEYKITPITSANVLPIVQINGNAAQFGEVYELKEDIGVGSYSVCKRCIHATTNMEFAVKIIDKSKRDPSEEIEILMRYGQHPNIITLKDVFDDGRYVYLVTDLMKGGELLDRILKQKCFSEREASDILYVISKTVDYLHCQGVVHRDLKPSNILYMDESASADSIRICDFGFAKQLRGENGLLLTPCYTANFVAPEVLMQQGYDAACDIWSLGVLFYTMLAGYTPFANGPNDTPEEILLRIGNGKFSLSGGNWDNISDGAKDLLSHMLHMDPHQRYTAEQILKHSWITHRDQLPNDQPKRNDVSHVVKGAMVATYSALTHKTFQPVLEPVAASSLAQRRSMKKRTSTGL

Regarding FAKLAARLYRKALARQLGVAA [MMI-0300], the “% activity” value came out at 84% in the assay with NEK7(h); 10% with SGK3(h); 95% in the assay with Ret(V804M)(h); 77% with MEK1(h); 64% with PKG1α(h); 70% in the assay with GCK(h). Further, the “% activity” value amounted to 89% with PKCγ(h), 92% with CK1δ(h), 90% with Rsk4(h) and 1% with CaMKIIδ(h).

Regarding YARAAARQARAKALNRQLGVA [MMI-0200], the “% activity” value with NEK7(h) was 96%; with SGK3(h), 58%; with PKG1α(h), 70%; in the assay with GCK(h), 99%; with PKCγ(h), 101%; with Met(Y1248D)(h), 118%. Besides, the “% activity” value came to 92% with CK1δ(h), 125% with Rsk4(h) and 2% with CaMKIIδ(h).

Take KAFAKLAARLYRKALARQLGVAA [MMI-0400]: the “% activity” value with NEK7(h) was found to be 87%; with SGK3(h) it was 8%; with Ret(V804M)(h), 87%; with MEK1(h), 77%; in the assay with PKG1α(h) it was 58%; with GCK(h), 66%. Also, the “% activity” value in the assay with PKCγ(h) is 79%; with Met(Y1248D)(h) it was 31%; with CK1δ(h) it was 93%; with Rsk4(h) it was 91%; with CaMKIIδ(h), 2%.

With HRRIKAWLKKIKALARQLGVAA [MMI-0500], the “% activity” value is 89% in the assay with NEK7(h); −3% with SGK3(h); 36% with Ret(V804M)(h); 21% with MEK1(h); 25% in the assay with PKG1α(h); 30% with GCK(h). The “% activity” value with PKCγ(h) is listed as 6%; in the assay with Met(Y1248D)(h), 218%; with CK1δ(h), 78%; with Rsk4(h) it was 29%; with CaMKIIδ(h), 1%.
